Test: BS3 cross-linking, non-reducing SDS-PAGE, anti-Flag blot
Settings: glycan changed form; control: K562/ADR cells (low GnT-III)

B1: TNF receptor 2 (TNFR2): GnT-III overexpression (protein)
parent chain: MAPVAVWAALAVGLELWAAAHALPAQVAFTPYAPEPGSTCRLREYYDQTAQMCCSKCSPGQHAKVFCTKTSDTVCDSCEDSTYTQLWNWVPECLSCGSRCSSDQVETQACTREQNRICTCRPGWYCALSKQEGCRLCAPLRKCRPGFGVARPGTETSDVVCKPCAPGTFSNTTSSTDICRPHQICNVVAIPGNASMDAVCTSTSPTRSMAPGAVHLPQPVSTRSQHTQPTPEPSTAPSTSFLLPMGPSPPAEGSTGDFALPVGLIVGVTALGLLIIGVVNCVIMTQVKKKPLCLQREAKVPHLPADKARGTQGPEQQHLLITAPSSSSSSLESSASALDRRAPTRNQPQAPGVEASGAGEARASTGSSDSSPGGHGTQVNVTCIVNVCSSSDHSSQCSSQASSTMGDTDSSPSESPKDEQVPFSKEECAFRSQLETPETLLGSTEEKPLPLGVPDAGMKPS
- oligomerisation: decreases
